Series [1] addresses K18* (four-repeat construct K18 of human Tau with Cys-291 and Cys-322 replaced by alanine and Ile-260 replaced by cysteine) (human). Briefly: SDS-PAGE and Western blot of sequential detergent extracts; SH-SY5Y cells incubated 8 h with 1 μM K18*, trypsin-washed, lysed; Triton and sarkosyl fractions; NuPAGE 4-12% BisTris gel, anti-human Tau antibody A0024. A general note: Immunoblotting shows a protein as a band on a membrane.

Series [2] can be described thus: fluorescence lifetime imaging (TCSPC); in vitro, pH 4.7, no heparin, 24 h; K18*: 1 μM, 10% labelled, cell culture medium (3824 ± 22 ps soluble); hTau40*: 10 μM, 1% labelled, BES buffer (3765 ± 53 ps soluble). The note with it: other: fluorescence lifetime imaging (TCSPC).
Series [3] can be described thus: fluorescence lifetime imaging (TCSPC); in vitro, 4:1 Tau:heparin (Mr 3000), 24 h, 37 °C; K18*: 1 μM, 10% labelled with Alexa Fluor 488, in cell culture medium (3664 ± 25 ps before); hTau40*: 20 μM, 1% labelled, in BES buffer pH 7.4 (3657 ± 18 ps before); a drop of the lifetime reports …. The note with it: other: fluorescence lifetime imaging (TCSPC).

By stoichiometry N is commonly meant the number of molecules, sites or subunits per partner or assembly.

Regarding “K18* (four-repeat construct K18 of human Tau with Cys-291 and Cys-322 replaced by alanine and Ile-260 replaced by cysteine) (domain or fragment)”, the stoichiometry N in series [1] is 2.

For the substance “K18* (four-repeat construct K18 of human Tau with Cys-291 and Cys-322 replaced by alanine and Ile-260 replaced by cysteine)”, in series [2], the “fluorescence lifetime of the Alexa Fluor 488 label, aggregated at pH 4.7” value was 3268 ± 31 ps. Besides, the “fluorescence lifetime of the Alexa Fluor 488 label, aggregated with heparin” value in series [3] is on record as 3262 ± 71 ps when aggregated.
